Target: human plasma-derived Factor IXa (human) (UniProt P00740)
Assay: cell-based or functional assay

human plasma-derived Factor IXa (human), sequence (P00740 47-191, chain 1 of 2): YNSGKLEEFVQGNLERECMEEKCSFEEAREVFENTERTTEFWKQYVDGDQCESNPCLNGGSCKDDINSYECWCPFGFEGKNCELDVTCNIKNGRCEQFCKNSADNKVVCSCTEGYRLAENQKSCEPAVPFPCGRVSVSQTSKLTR
human plasma-derived Factor IXa (human), sequence (P00740 227-461, chain 2 of 2): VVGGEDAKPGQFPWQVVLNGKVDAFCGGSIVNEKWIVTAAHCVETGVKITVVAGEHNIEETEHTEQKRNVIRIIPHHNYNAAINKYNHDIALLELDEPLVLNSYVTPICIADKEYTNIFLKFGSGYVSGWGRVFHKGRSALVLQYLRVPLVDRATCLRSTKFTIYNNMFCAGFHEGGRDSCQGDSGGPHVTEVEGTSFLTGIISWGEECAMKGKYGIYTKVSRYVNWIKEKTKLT

B1: one-armed (OA) 224F3 antibody (antibody, from another filing, V domains shown)
VH: QVQMQQSGAELVKPGASVKLSCKASGYTFTSQDINWVRQRPEQGLEWIGWIFPGDGSTKYNEKLKGKATLTTDKSSSTAFMQLSRLTSEDSAVYFCARSAYYRYDGSYYYAMDYWGQGTSVTVSS
VL: QIVLTQSPAIMSASLGEEITLTCSASSSVSYMLWYQQKSGTSPKLLIYTTSNLASGVPSRFSGTGSGTFYSLTISSVEAEDAADYYCHQWSSYPRTFGGGTKLEIKR
Stimulation Index, FXa generation assay, 3260 nM OA antibody: < 10 fold

Reference: patent US20260193376A1
